From US20190367586A1 (VANDERBILT UNIVERSITY, published 2019) come the findings set out here.

Experiment [1] deals with F protein of RSV strain A2 (infectious virus) (human respiratory syncytial virus …, UniProt P03420 26-574). Briefly: cell-based or functional assay.
Experiment [2] concerns the target F protein of RSV strain 18537 B (infectious virus) (human respiratory syncytial virus …, UniProt P13843 26-574). Briefly: cell-based or functional assay.
The target in experiment [3] is F protein of RSV strain Long (infectious virus) (human respiratory syncytial virus …, UniProt P12568 26-574). The experiment in a line: cell-based or functional assay.
In experiment [4] the target is T1, RSV strain A2 pre-fusion F protein (SC-TM) (human respiratory syncytial virus …, UniProt P03420 26-513).
T1 construct: not shown: fold-on trimerization domain and polyhistidine tag
The experiment in a line: ELISA, F protein coated. A general note: In an ELISA, binding on a coated surface is turned into a signal by an enzyme label.

The target of experiment [5] is T2, RSV strain 18537 post-fusion F (human respiratory syncytial virus …, UniProt P13843 26-109; P13843 137-524).
T2 construct: extracellular domain; also called RSV B 18537 (post)
Briefly: ELISA, F protein coated.

Experiment [6] deals with T3, RSV strain A2 post-fusion F (human respiratory syncytial virus …, UniProt P03420 26-109; P03420 137-524).
T3 construct: extracellular domain
The experiment in a line: ELISA, F protein coated.

For experiment [7], the target named is F protein of RSV strain A2 (infectious virus) (human respiratory syncytial virus …, UniProt P03420 26-574). The experiment in a line: cell-based or functional assay. This is another data set of the same source.
Experiment [8] deals with RSV strain A2 pre-fusion F protein (SC-TM) (human respiratory syncytial virus …, UniProt P03420 26-513). The experiment in a line: ELISA, F protein coated.

B1: hRSV97 (antibody, V domains shown)
VH: EVQLVESGGTLVQPGRSLRLSCAASGFNFEEYAMHWVRQVPGKGLEWVARINWNGGIIGYADSVKGRFTISRDNAKKSLYLQMNSLRTDDSALYYCGKDVFWAVAGTGGPIDSWGQGTLVTVSS
VL: DIVMTQSPSSLSASIGDRVTISCRASRDISNYLAWYQQKSGKVPKLLIYAASTLESGVPSRFSGSGSGTDFTLTISSLQPEDVATYYCQNYNSAQMCSFGQGPSLEIK
For the molecule B1, the “Neutralization IC50, plaque-reduction assay” value came to 2.23 µg/mL in experiment [1], 0.065 µg/mL in experiment [2] and 0.106 µg/mL in experiment [3]. The EC50 (as a rule, the concentration giving half of the maximal effect) in experiment [4] was 0.053 µg/mL.

B2: hRSV139 (antibody, V domains shown)
VH: QVQLVQSGAEVKKPGASVKVSCKASGYVFSNYGISWVRQAPGQGLEWMGWISAYNGNTEFAQKFQGRITMTTDTSTNTAYLEVRGLRSDDTAVYYCSRQSGVSGVPEFQDWGQGTLVTVSS
VL: QAVVTQSPLSLPVTLGQPASISCRSSQSLVYSNGDTYLSWFQQRPGQSPRRLIYKVSNRDSGVPDRFSASGSGTDFTLKISRVEAEDVGVYYCMQGTHWPPPTFGQGTRLEIK
Turning to B2, the “Neutralization IC50, plaque-reduction assay” value in experiment [1] is 0.621 µg/mL; in experiment [2], 0.216 µg/mL; in experiment [3], 0.07 µg/mL. Further, in experiment [4], the midpoint of the response, the EC50, lay at 0.04 µg/mL.

B3: AM14 (antibody, V domains shown)
VH: EVQLVESGGGVVQPGRSLRLSCAASGFSFSHYAMHWVRQAPGKGLEWVAVISYDGENTYYADSVKGRFSISRDNSKNTVSLQMNSLRPEDTALYYCARDRIVDDYYYYGMDVWGQGATVTVSS
VL: DIQMTQSPSSLSASVGDRVTITCQASQDIKKYLNWYHQKPGKVPELLMHDASNLETGVPSRFSGRGSGTDFTLTISSLQPEDIGTYYCQQYDNLPPLTFGGGTKVEIKR
For the molecule B3, in experiment [3], the “Neutralization IC50, plaque-reduction assay” value was 0.043 µg/mL. In addition, the EC50 in experiment [5] was found to be 0.198 µg/mL.

B4: D25 (antibody, V domains shown)
VH: QVQLVQSGAEVKKPGSSVMVSCQASGGPLRNYIINWLRQAPGQGPEWMGGIIPVLGTVHYAPKFQGRVTITADESTDTAYIHLISLRSEDTAMYYCATETALVVSTTYLPHYFDNWGQGTLVTVSS
VL: DIQMTQSPSSLSAAVGDRVTITCQASQDIVNYLNWYQQKPGKAPKLLIYVASNLETGVPSRFSGSGSGTDFSLTISSLQPEDVATYYCQQYDNLPLTFGGGTKVEIKR
Turning to B4, the “Neutralization IC50, plaque-reduction assay” value in experiment [2] was above 1 µg/mL; in experiment [3], 0.009 µg/mL.

B5: hRSV12 (antibody, V domains shown)
VH: QVQLVQSGAEVKKPGTSVRVSCKTSGYNFMNYGIYWVRQAPGQGLEWVGWISAYNGQTDRAQKFQGRVTMTTDISTNTGYMDLRSLRSDDTAVYFCARGPPVIAAVSLEYWGRGTLVTVSS
VL: EVVMTQSPLSLPVTLGQPASISCKSSQSLVHSNGDTYLNWFQQRPGQSPRRLIYKVSNRDSGVPDRFSGSGSGTDFTLKISRVETEDVGVYYCMQATHWPGSFGQGTKLEIK
For B5, the “Neutralization IC50, plaque-reduction assay” value in experiment [1] came to 0.141 µg/mL; in experiment [2] it was 0.443 µg/mL; in experiment [3] it was 0.016 µg/mL. For the same molecule, the EC50 in experiment [4] was 0.028 µg/mL; in experiment [6], 0.285 µg/mL.

B6: motavizumab (antibody, V domains shown)
VH: QVTLRESGPALVKPTQTLTLTCTFSGFSLSTAGMSVGWIRQPPGKALEWLADIWWDDKKHYNPSLKDRLTISKDTSKNQVVLKVTNMDPADTATYYCARDMIFNFYFDVWGQGTTVTVSS
VL: DIQMTQSPSTLSASVGDRVTITCSASSRVGYMHWYQQKPGKAPKLLIYDTSKLASGVPSRFSGSGSGTEFTLTISSLQPDDFATYYCFQGSGYPFTFGGGTKVEIK
Take B6: the “Neutralization IC50, plaque-reduction assay” value came to 0.123 µg/mL in experiment [7], 0.091 µg/mL in experiment [2] and 0.009 µg/mL in experiment [3]. The EC50 in experiment [8] was 0.017 µg/mL; in experiment [6], 0.083 µg/mL; in experiment [5], 0.084 µg/mL.

B7: palivizumab (antibody, V domains shown)
VH: QVTLRESGPALVKPTQTLTLTCTFSGFSLSTSGMSVGWIRQPPGKALEWLADIWWDDKKDYNPSLKSRLTISKDTSKNQVVLKVTNMDPADTATYYCARSMITNWYFDVWGAGTTVTVSS
VL: DIQMTQSPSTLSASVGDRVTITCKCQLSVGYMHWYQQKPGKAPKLLIYDTSKLASGVPSRFSGSGSGTEFTLTISSLQPDDFATYYCFQGSGYPFTFGGGTKLEIK
B7: the “Neutralization IC50, plaque-reduction assay” value in experiment [7] was determined as 11 µg/mL; in experiment [2], 1.27 µg/mL; in experiment [3] it was 0.212 µg/mL. The EC50 was found to be 0.024 µg/mL in experiment [6] and 0.081 µg/mL in experiment [5].

B8: hRSV7 (antibody, V domains shown)
VH: EVQLVESGGGLVQPGGSLRLSCAASGFTFRNYAMSWVRQAPGKGLEWVSDISSGGDTTYYAESLKGRITISRDNSKNTLYLQMNSLRAEDAAIYFCAKHLLSPMYVNTDVFPDWYFEIWGRGTLVTVSS
VL: SYELTQPPSVSVSPGQTARITCSGDGLPKKYAYWYQQKSGQAPVLVIYDDSKRPSGIPERFSGTSSGTMATLIISGAQVEDEADYYCYSRHNSAYQRVFGAGTQLTVL
As to B8, the “Neutralization IC50, plaque-reduction assay” value was 1.33 µg/mL in experiment [1], 0.022 µg/mL in experiment [2] and 0.062 µg/mL in experiment [3].

B9: hRSV90 (antibody, V domains shown)
VH: EVQLVESGGGLVQPRRSLRLSCAASGFTFDDYTIHWVRQAPGKGLEWVSGITWNSGYIGYADSVKGRFTISRDNARNSLYLQMNSLRAEDTALYYCVRDAYVSGSDYYYYGLDVWGRGTLVTVSS
VL: EIVMTSSPATLSVSPGERATLFCRASQSVISNLAWYQQKSGQAPRLLIYGASTRATGIPARFSGSGSGTEFTLTISSLQSEDFAVYFCQQYNNWPLTFGGGTQVNVQ
notes: also called mAb hRSV90
As for B9, the “Neutralization IC50, plaque-reduction assay” value in experiment [1] came out at 0.015 µg/mL; in experiment [2], 0.045 µg/mL; in experiment [3], 0.035 µg/mL. Besides, in experiment [4], the concentration giving a half-maximal response (EC50) came to 0.028 µg/mL.

B10: hRSV106 (antibody, V domains shown)
VH: QITLKESGPTLVKPTQTLTLTCTFSGFSLTTRGVGVAWIRQPPGKALEWLALIYWDDDKRYRSSPKGRLTITKDNSKNQVVLIMTNMDPVDTATYYCAHAMDDSGSYYVGLSKDPHFDSWGHGTLVTVSS
VL: SYELTQPPSVSVSPGQTASITCSGDVLFNKFASWYQQKPGQSPVLVIYQDSKRPSGIPERFSGSNSGNTATLTIRGTQAMDEADYYCQARGSTAAHVIFGGGTKVTVL
Regarding B10, the results for the “Neutralization IC50, plaque-reduction assay” value in experiment [1], in experiment [2] and in experiment [3] were 0.451 µg/mL, 0.114 µg/mL and 0.043 µg/mL, respectively. In experiment [4], this molecule gave an EC50 of 0.046 µg/mL.

B11: hRSV20 (antibody, V domains shown)
VH: QVQLVESGGGLVQPGRSLRLSCAASGFTFDDYAMHWVRQAPGRGLEWVSGISWNSGIAVYADSVKGRFTISRDNAKKSLYLQINSLRAEDTALYYCVKDNYASGSYSSYYYYYGLDLWGQGTLVTVSS
VL: EIVMTQSPATLSVSPGERATLSCRASQSIISNLAWYQQKPGQAPRLLIYGVSTRATGIPARFSGSGSDTEFTLSISSLQSEDFAVYYCQQYNNWPITFGQGTRLEIK
Turning to B11, the figures for the “Neutralization IC50, plaque-reduction assay” value in experiment [1], in experiment [2] and in experiment [3] were 0.034 µg/mL, 0.114 µg/mL and 0.014 µg/mL, respectively.

B12: hRSV141 (antibody, V domains shown)
VH: QVQLVQSGAEVKKPGASVKVSCKASGYTFTNYYMHWVRQAPGQGLEWMGWINPNRGGTNYAQKFQGRVTMTLDTSISTAYIELSRLRSDDTAVYYCARDLTLGTDYWGQGTLVTVSS
VL: QAVVTQPASVFGFPGQSITISCTGTSSDVGGYNYVSWYQQRPGKAPKLMIYEVSNRPSGVSNRFSGSKSGNTASLTISGLQAEDEADYYCNSYTSSNSYVFGTGTKVTVL
Consider B12, for which the “Neutralization IC50, plaque-reduction assay” value was 0.626 µg/mL in experiment [1], 0.053 µg/mL in experiment [2] and 0.028 µg/mL in experiment [3]. In experiment [4], the concentration giving a half-maximal response (EC50) turned out to be 0.029 µg/mL.

B13: hRSV61 (antibody, V domains shown)
VH: QVQLVQSGAELKKPGASVKVSCKASGYTFTNHGITWVRQAPGQGLEWMSWISGYNGNTQYAQKFQGRVTMTTDTSTRTAYMELRSLTSDDTAVYYCARDNGVVVGPPDYWGQGTLVTVSS
VL: DIQMTQSPSTLSASVGDRVTISCRASQSISSWLAWYQQKPGKPPKLLIYKASGLQTGVPSRFSGSGSGTEFTLTISSLQPDDFATYYCQYYHSLSAFGQGTKVEIK
Regarding B13, the “Neutralization IC50, plaque-reduction assay” value in experiment [1] came to 0.276 µg/mL; in experiment [2], 0.09 µg/mL; in experiment [3] it was 0.054 µg/mL. The molecule further had an EC50 in experiment [4] of 0.027 µg/mL.

B14: hRSV75 (antibody, V domains shown)
VH: EVQLVESGGGLVKPGGSLRLSCAASGFTFRSYSMNWVRQAPGKGLEWVSSITSSSSYIDYADSVKGRFTISRDNAKNSLYLQMNSLRAEDTAVYYCARAYCGGDCSVDHFQHWGQGTLVTVSS
VL: QSVLTQPPSVSGAPGQRVTISCTGSSSNIGAGYDVHWYQHLPGTAPKLLIYVNSNRPSGVPDRFSASKSGTSASLAITGLQAEDEADYYCQSYDKSLSGFYVFGTGTKVTVL
Consider B14, for which the “Neutralization IC50, plaque-reduction assay” value in experiment [1] was 0.129 µg/mL; in experiment [2], 0.062 µg/mL; in experiment [3] it was 0.019 µg/mL. In addition, in experiment [4], a half-maximal response (EC50) required 0.044 µg/mL.
